In US20190367620A1 (Merck KGaA, published 2019):

Assays:
Experiment in all cases: SPR as in Example 1.8
[1] = target: T1, FGFR1 D2 point mutant K51A (human, UniProt P11362 22-254)
T1 chain: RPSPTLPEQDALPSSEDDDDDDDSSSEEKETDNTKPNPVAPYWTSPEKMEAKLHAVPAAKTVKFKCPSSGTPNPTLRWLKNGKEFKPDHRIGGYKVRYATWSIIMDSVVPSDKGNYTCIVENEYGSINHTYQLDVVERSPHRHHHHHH
Outline: (§1)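 Anti-FGFR1 mAb captured via immobilised anti-human Fc to ~200 RU; 2-fold dilutions of His-tagged FGFR1 (wild-type or HEK-expressed point mutants, Ala→Gly for native Ala) injected at 25° C in HBS-EP+. kon/koff from 1:1 Langmuir fit; KD = koff/kon.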

[2] = target: T2, human FGFR1b-IIIc extracellular domain with a HIS tag (human, UniProt P11362 22-376)
T2 construct: also called huFGFR1b-IIIc; hFGFR1b-IIIc
T2 sequence: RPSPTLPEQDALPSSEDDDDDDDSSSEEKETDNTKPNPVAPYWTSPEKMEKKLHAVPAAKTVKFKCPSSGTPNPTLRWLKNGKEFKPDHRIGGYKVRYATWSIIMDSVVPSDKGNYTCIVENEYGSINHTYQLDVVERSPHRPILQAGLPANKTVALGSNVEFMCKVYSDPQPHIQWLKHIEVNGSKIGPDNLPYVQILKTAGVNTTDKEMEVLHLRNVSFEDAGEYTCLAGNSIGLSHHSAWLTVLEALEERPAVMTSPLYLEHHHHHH
Outline: as §1

[3] = target: T3, FGFR1 D2 point mutant S45A (human, UniProt P11362 22-254)
T3 chain: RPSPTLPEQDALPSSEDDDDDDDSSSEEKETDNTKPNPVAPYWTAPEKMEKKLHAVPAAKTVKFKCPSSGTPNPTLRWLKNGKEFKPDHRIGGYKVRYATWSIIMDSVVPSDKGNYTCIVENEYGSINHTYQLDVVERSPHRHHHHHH
Outline: as §1

[4] = target: T4, human FGFR1b-IIIb extracellular domain with a HIS tag (human)
T4 construct: also called huFGFR1b-IIIb; hFGFR1b-IIIb
T4 chain: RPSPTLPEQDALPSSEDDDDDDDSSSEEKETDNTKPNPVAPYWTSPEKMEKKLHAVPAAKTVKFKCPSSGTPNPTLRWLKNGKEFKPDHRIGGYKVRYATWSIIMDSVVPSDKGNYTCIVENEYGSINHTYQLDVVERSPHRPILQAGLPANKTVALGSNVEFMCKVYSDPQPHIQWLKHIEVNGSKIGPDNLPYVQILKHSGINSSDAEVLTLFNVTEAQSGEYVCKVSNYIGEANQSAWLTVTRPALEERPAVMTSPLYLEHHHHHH
Outline: as §1

[5] = target: T5, FGFR1 D2 point mutant K86A (human, UniProt P11362 22-254)
T5 chain: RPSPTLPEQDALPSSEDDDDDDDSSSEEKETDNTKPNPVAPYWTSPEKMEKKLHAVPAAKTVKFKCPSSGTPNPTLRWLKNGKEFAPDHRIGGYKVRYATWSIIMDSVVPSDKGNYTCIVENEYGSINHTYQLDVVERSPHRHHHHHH
Outline: as §1

[6] = target: T6, FGFR1 D2 point mutant E47A (human, UniProt P11362 22-254)
T6 chain: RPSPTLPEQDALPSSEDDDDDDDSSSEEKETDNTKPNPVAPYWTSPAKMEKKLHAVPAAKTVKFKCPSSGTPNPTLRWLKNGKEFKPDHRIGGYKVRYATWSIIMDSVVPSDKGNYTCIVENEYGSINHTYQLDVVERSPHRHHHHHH
Outline: as §1

[7] = target: T7, FGFR1 D2 point mutant Y94A (human, UniProt P11362 22-254)
T7 construct: Uncharacteristic melting curve
T7 chain: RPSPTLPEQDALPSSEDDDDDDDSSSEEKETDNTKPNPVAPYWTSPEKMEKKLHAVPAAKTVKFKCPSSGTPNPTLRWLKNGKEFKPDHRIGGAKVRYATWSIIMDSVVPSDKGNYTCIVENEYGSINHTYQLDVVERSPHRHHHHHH
Outline: as §1

[8] = target: T8, FGFR1 D2 point mutant A55G (human, UniProt P11362 22-254)
T8 chain: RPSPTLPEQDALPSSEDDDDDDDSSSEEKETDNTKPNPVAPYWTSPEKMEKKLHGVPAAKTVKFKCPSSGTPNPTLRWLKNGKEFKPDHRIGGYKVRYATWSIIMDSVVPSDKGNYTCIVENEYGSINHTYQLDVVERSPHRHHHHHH
Outline: as §1

[9] = target: T9, FGFR1 D2 point mutant R97A (human, UniProt P11362 22-254)
T9 chain: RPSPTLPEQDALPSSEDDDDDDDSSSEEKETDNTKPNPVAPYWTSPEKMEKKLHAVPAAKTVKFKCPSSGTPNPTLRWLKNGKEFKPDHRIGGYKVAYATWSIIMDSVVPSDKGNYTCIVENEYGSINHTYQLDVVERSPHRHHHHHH
Outline: as §1

Kd [1]: 0.31 nM
Kd [2]: 0.48 nM
Kd [3]: 0.21 nM
Kd [4]: 0.47 nM
Kd [5]: 0.18 nM
Kd [6]: 0.26 nM
Kd [7]: 0.99 nM
Kd [8]: 0.22 nM
Kd [9]: 4.25 nM
B1: mAb #A08 (antibody, V domains shown)
VH: EVQLQESGPGLVKPSGTLSLTCAVSGGSISSNNWWSWVRQPPGKGLEWIGEIYHSGSTSYNPSLKSRVTISVDKSKNQFSLKLNSVTAADTAVYYCARGTDWFDPWGQGTLVTVSS
VL: QAVLTQPPSVSVAPGQTARITCGGNNIGSESVHWYQQKPGQAPVLVVYDDSDRPSGIPERFSGSNSGNTATLTISRVEAGDEADYYCQVWDSTSDHRVFGGGTKLTVL
notes: Only variable domains are tied to the name mAb #A08 (hit); also called #A08 hit; mAb #08
